In test [1] the target is T1, his-tagged human BCMA protein (ACROBiosystems, catalog # BCA-H522y-100 ug) (human, UniProt Q02223 1-54).
T1 construct: limits of the bought construct are not otherwise stated; also called recombinant his-tagged human BCMA; not shown: his tag of the bought protein
T1 sequence: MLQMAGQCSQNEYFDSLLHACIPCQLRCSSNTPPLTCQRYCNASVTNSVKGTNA
In words: SPR (Biacore T200, 25 C), antibody captured on anti-human Fc, his-tagged human BCMA as analyte, 1:1 binding model. The method, then: (§1) Binding kinetics of anti-BCMA antibodies with his-tagged human BCMA protein (ACROBiosystems, catalog # BCA-H522y-100 ug, UniProt Q02223-1, SEQ ID NO:92) was measured using surface plasmon resonance (SPR). Kinetic interactions between the antibodies and his-tagged BCMA proteins were measured at 25° C. using Biacore T200 surface plasmon resonance (GE Healthcare). Anti-human fragment crystallizable region (Fc region) antibody was immobilized on a CM5 sensor chip to approximately 8000 resonance units (RU) using standard N-hydroxysuccinimide/N-Ethyl-N′-(3-dimethylaminopropyl) carbodiimide hydrochloride (NHS/EDC) coupling methodology. The anti-BCMA antibody (2 μg/mL) was captured for 60 seconds at a flow rate of 10 μL/minute. The his-tagged BCMA protein was run at six different dilutions of 3.12, 6.25, 12.5, 25, 50, 100 and 200 nM, in a running buffer of 0.01 M HEPES pH 7.4, 0.15 M NaCl, 3 mM EDTA, 0.05% v/v Surfactant P20 (HBS-EP+). The 25 nM BCMA protein run was measured two times. All measurements were conducted in HBS-EP+ buffer with a flow rate of 30 μL/minute. A 1:1 (Langmuir) binding model was used to fit the data. The SPR sensorgrams of anti-BCMA antibodies BCA7, GSK J6M0, BC4C9 and BC5C4 are shown in FIGS. 1, 2, 3 and 4, respectively, and their corresponding binding kinetics are listed in Table 3.

In test [2] the target is T1, his-tagged human BCMA protein …. In words: SPR (Biacore T200), antibody captured on anti-human Fc chip, his-tagged human BCMA as analyte. As for the experimental part: as §1, with “The SPR sensorgrams of anti-BCMA antibodies BCA7, GSK J6M0, BC4C9 and BC5C4 are shown in FIGS. 1, 2, 3 and 4, respectively, and their corresponding binding kinetics are listed in Table 3.” left out
(§2) Cross reactivity of two of the anti-BCMA antibodies, BCA7-2C5 and BCA7-2E1, with his-tagged human, cynomolgus or mouse BCMA protein were analyzed by SPR in the manner as described above. […]

For test [3] the target is unchanged. The test is described as follows: SPR (Biacore T200), antibody captured on anti-human Fc, his-tagged human BCMA as analyte; fit with ka1/kd1/ka2/kd2 (model not named). As for the experimental part:
as §1, with “A 1:1 (Langmuir) binding model was used to fit the data.” left out
Binding kinetics of optimized anti-BCMA antibodies BCA7-2C5, BCA7-2D11, BCA7-2G2, BCA7-2E1, BCA7-2D8 and BCA7-2E8, with his-tagged human BCMA protein (ACROBiosystems, catalog # BCA-H522y-100 ug), were analyzed in the manner as described above.

Test [4] addresses T2, his-tagged mouse BCMA protein (ACROBiosystems, catalog # BCA-M52H3) (mouse, UniProt O88472 1-49).
T2 construct: Bought protein; not shown: his tag
T2 chain (looked up): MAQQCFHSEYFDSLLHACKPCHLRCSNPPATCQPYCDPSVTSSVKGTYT
The test is described as follows: SPR (Biacore T200), antibody captured on anti-human Fc chip, his-tagged mouse BCMA as analyte. The method, then: as §1, with “The SPR sensorgrams of anti-BCMA antibodies BCA7, GSK J6M0, BC4C9 and BC5C4 are shown in FIGS. 1, 2, 3 and 4, respectively, and their corresponding binding kinetics are listed in Table 3.” left out
as §2

Test [5] addresses T3, Mutant-2 human BCMA protein-mouse Fc (human).
T3 construct: also called mutant-2 human BCMA-mouse Fc (del32-35G); mutant-2 BCMA protein
T3 chain: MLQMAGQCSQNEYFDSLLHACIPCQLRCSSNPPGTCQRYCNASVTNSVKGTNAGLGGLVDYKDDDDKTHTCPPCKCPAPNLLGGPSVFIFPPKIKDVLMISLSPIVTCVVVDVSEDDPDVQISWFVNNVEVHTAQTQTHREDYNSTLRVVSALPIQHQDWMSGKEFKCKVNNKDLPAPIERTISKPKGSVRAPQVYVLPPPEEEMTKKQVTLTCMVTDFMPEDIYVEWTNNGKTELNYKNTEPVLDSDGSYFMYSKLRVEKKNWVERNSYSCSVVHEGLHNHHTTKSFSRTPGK
In words: bio-layer interferometry, antibody (100 nM) loaded on AR2G sensor, BCMA-mouse Fc in solution. The method, then: (§3) The results of the protein-protein binding assays described in Example 8 were used to design an epitope mapping assay using bio-layer interferometry. Various anti-BCMA antibodies (2C5, 2E1, 4C9, 6G8, Bluebird C11D5, GSK J6M0, or isotype control) (100 nM) were loaded onto AR2G sensors and reacted with buffer or one of three types of human BCMA proteins including: including: wild type human BCMA-mouse Fc (SEQ ID NO:5), mutant-1 human BCMA-mouse Fc (double mutation 17G-18G; SEQ ID NO:6), or mutant-2 human BCMA-mouse Fc (mutation del32-35G; SEQ ID NO:7).

In test [6] the target is T4, Wild type human BCMA protein-mouse Fc (human).
T4 construct: also called wild type human BCMA-mouse Fc; wild type BCMA protein
T4 chain: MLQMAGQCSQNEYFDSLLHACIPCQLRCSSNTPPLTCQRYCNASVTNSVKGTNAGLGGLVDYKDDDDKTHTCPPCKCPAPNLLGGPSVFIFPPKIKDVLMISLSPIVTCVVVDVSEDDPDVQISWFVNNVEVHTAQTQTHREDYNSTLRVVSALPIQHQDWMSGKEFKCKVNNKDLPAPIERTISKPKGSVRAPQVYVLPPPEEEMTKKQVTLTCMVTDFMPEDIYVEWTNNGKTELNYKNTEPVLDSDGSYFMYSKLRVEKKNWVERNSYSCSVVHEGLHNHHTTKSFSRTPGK
Described as above. The method, then: as §3

Test [7] deals with T5, his-tagged cynomolgus BCMA protein (ACROBiosystems, catalog # BCA-052H7) (cynomolgus, UniProt A0A2K5UD97 1-53).
T5 construct: Bought protein; also called cyno BCMA; not shown: his tag
T5 sequence (A0A2K5UD97 entry or part of it): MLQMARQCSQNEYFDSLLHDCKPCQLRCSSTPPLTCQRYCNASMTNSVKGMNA
The test is described as follows: SPR (Biacore T200), antibody captured on anti-human Fc chip, his-tagged cynomolgus BCMA as analyte. The method, then: as §1, with “The SPR sensorgrams of anti-BCMA antibodies BCA7, GSK J6M0, BC4C9 and BC5C4 are shown in FIGS. 1, 2, 3 and 4, respectively, and their corresponding binding kinetics are listed in Table 3.” left out
as §2

The results in this text go back to patent US20210388097A1 (SORRENTO THERAPEUTICS, published 2021).

Where a chain is given by its changes, count along the chain named.

B1: BC5C4 antibody (antibody, V domains shown)
VH: EVQLVESGGGLVQPGRSLRLSCAASGFTFDDYAMHWVRQAPGKGLEWVSGISWNSGSIGYADSVKGRFTISRDNAKNSLYLQMNSLRAEDTAVYYCATIDNVAFHSWGQGTLVTVSS
VL: QSVLTQPPSASGSPGQSVTISCTGTSSDIGGYNYVSWYQQHPGKAPKLIIYEVSNRPSGVSDRFSGSKSGNTASLTISGLQAEDEADYYCSSYTDNGALVVFGGGTKLTVL
notes: also called CD5C4
For the molecule B1, in test [1], binding was characterised by a dissociation constant (Kd) of 9.27 nM, the koff is 0.033 s⁻¹ and the kon was found to be 3.56e+06 M⁻¹ s⁻¹.

B2: BCA7-2E1 antibody (antibody, V domains shown)
VH: EVQLVESGGGLVKPGGSLRLSCAASGFTSSTAWMSWVRQAPGKGLEWVGRIKSKSDGGTTDYAAPVKGRFTISRDDSKNTLFLQMNSLKTEDTAVYYCAKGGGTYGYWGQGTTVTVSS
VL: QSALTQPASVSGSPGQSVTISCTGTSSDGGGHTYVSWYQQHPGKAPKLMIYDVSNRPSWVSNRFSGSKSGNTASLTISGLQAEDEADYYCGSYTSSGSYVFGTGTKLTVL
notes: also called BCA-2E1
Turning to B2, the Kd in test [2] stood at 20.4 nM; in test [3], 20.4 nM; in test [4], 1000 nM; in test [7] it was 174 nM. Besides, the ka1 in test [3] amounted to 2.51e+06 M⁻¹ s⁻¹. In test [3], the ka2 was 0.0018 s⁻¹. Further, the kd1 in test [3] was 0.151 s⁻¹. In addition, the kd2 in test [3] amounted to 0.000929 s⁻¹. Moreover, the binding result in test [5] and in test [6] was “binds” in each case.

B3: BCA7-2E8 antibody (antibody, V domains shown)
VH: B2 VH
VL: B2 VL with A3V, G29V, H32Y, T33N, W59G, Y93L, T94R, S96N, S98D, K106T
Turning to B3, in test [3], the equilibrium dissociation constant (Kd) turned out to be 155 nM, the ka1 worked out at 48700 M⁻¹ s⁻¹, the ka2 was found to be 0.0119 s⁻¹ and the kd1 was 0.0202 s⁻¹. For the same molecule, the kd2 in test [3] was 0.00707 s⁻¹.

B4: BCA7-2D8 antibody (antibody, V domains shown)
VH: B2 VH
VL: B2 VL with A3V, D28S, G29I, G31D, H32S, T33Y, W59G, K106T
In test [3], B4 showed a Kd of 83.8 nM, a ka1 of 2.43e+06 M⁻¹ s⁻¹, a ka2 of 0.0113 s⁻¹ and a kd1 of 1.09 s⁻¹. For the same molecule, the kd2 in test [3] is 0.0026 s⁻¹.

B5: BCA7-2G2 antibody (antibody, V domains shown)
VH: B2 VH
VL: B2 VL with A3V, D28S, G29V, H32R, T33Q, W59G
B5: in test [3], binding was characterised by a dissociation constant (Kd) of 53.7 nM, the ka1 was determined as 32100 M⁻¹ s⁻¹, the ka2 is 0.00143 s⁻¹ and the kd1 was 0.00376 s⁻¹. Besides, in test [3], the kd2 came to 0.00121 s⁻¹.

B6: BCA7-2D11 antibody (antibody, V domains shown)
VH: B2 VH
VL: B2 VL with Q1S, S2Y, A3E, D28V, G29V, T33D, W59G, L107V
In test [3], B6 registered a Kd of 21.9 nM, a ka1 of 1.87e+06 M⁻¹ s⁻¹, a ka2 of 0.00381 s⁻¹ and a kd1 of 0.261 s⁻¹. Further, in test [3], the kd2 was 0.00071 s⁻¹.

B7: BC4C9 antibody (antibody, V domains shown)
VH: EVQLVQSGAEVKKPGASVKVSCKAFGYTFTSYDINWVRQATGQGLEWMGWMNPNSGNTGYAQKFQGRVTMTRNTSISTAYMELSSLRSEDTAVYYCASGLGEWGQGTLVTVSS
VL: QSVLTQPASVSGSPGQSVTISCTGTSSDVGGYNYVSWYQQHPGKAPKLMIYDVSKRPSGVSNRFSGSKSGNTASLTISGLQAEDEADYYCISYSSSSTFYVFGTGTKVTVL
As to B7, the binding result in test [5] is recorded as “binds”. The binding result in test [6] is “binds”. In test [1], this molecule registered a Kd of 27.3 nM, a koff of 0.000567 s⁻¹ and a kon of 20800 M⁻¹ s⁻¹.
